Measured values from patent US12630600B2 (MEDIMMUNE LIMITED, priority 2022, dated 2026).
Starred links: 1 amine or outer side, 2 acyl side, 3 side chain; linkers in the order of their positions; H or OH if unused. Non-standard residues stand in square brackets, D forms with d. Groups on a side chain read outwards from the residue. No end group written: not given here. *: point of attachment. C20 diacid = O=C(O)CCCCCCCCCCCCCCCCCCC(=O)*; C18 diacid = O=C(O)CCCCCCCCCCCCCCCCC(=O)*; γGlu = O=C(O)[C@H](CCC(=O)[*:2])N[*:1]; αMeF = C[C@](N)(Cc1ccccc1)C(=O)O; AEEA = NCCOCCOCC(=O)O; Aib = CC(C)(N)C(=O)O

B1: Peptide 484 (peptide)
peptide: H[Aib]QGTFTSDVSK[αMeF]LDTK([AEEA-AEEA-γGlu-C20 diacid])RAQDFVQWLL[Aib]E-OH
modifications: N-terminus assumed
SMILES: CC(C)C[C@H](NC(=O)[C@H](Cc1c[nH]c2ccccc12)NC(=O)[C@H](CCC(N)=O)NC(=O)[C@@H](NC(=O)[C@H](Cc1ccccc1)NC(=O)[C@H](CC(=O)O)NC(=O)[C@H](CCC(N)=O)NC(=O)[C@H](C)NC(=O)[C@H](CCCNC(=N)N)NC(=O)[C@H](CCCCNC(=O)COCCOCCNC(=O)COCCOCCNC(=O)CC[C@H](NC(=O)CCCCCCCCCCCCCCCCCCC(=O)O)C(=O)O)NC(=O)[C@@H](NC(=O)[C@H](CC(=O)O)NC(=O)[C@H](CC(C)C)NC(=O)[C@](C)(Cc1ccccc1)NC(=O)[C@H](CCCCN)NC(=O)[C@H](CO)NC(=O)[C@@H](NC(=O)[C@H](CC(=O)O)NC(=O)[C@H](CO)NC(=O)[C@@H](NC(=O)[C@H](Cc1ccccc1)NC(=O)[C@@H](NC(=O)CNC(=O)[C@H](CCC(N)=O)NC(=O)C(C)(C)NC(=O)[C@@H](N)Cc1c[nH]cn1)[C@@H](C)O)[C@@H](C)O)C(C)C)[C@@H](C)O)C(C)C)C(=O)N[C@@H](CC(C)C)C(=O)NC(C)(C)C(=O)N[C@@H](CCC(=O)O)C(=O)O
B2: Peptide 482 (peptide)
peptide: H[Aib]QGTFTSDVSK[αMeF]LESK([AEEA-AEEA-γGlu-C18 diacid])RAQDFVQWLL[Aib]E-OH
modifications: N-terminus assumed
SMILES: CC(C)C[C@H](NC(=O)[C@H](Cc1c[nH]c2ccccc12)NC(=O)[C@H](CCC(N)=O)NC(=O)[C@@H](NC(=O)[C@H](Cc1ccccc1)NC(=O)[C@H](CC(=O)O)NC(=O)[C@H](CCC(N)=O)NC(=O)[C@H](C)NC(=O)[C@H](CCCNC(=N)N)NC(=O)[C@H](CCCCNC(=O)COCCOCCNC(=O)COCCOCCNC(=O)CC[C@H](NC(=O)CCCCCCCCCCCCCCCCC(=O)O)C(=O)O)NC(=O)[C@H](CO)NC(=O)[C@H](CCC(=O)O)NC(=O)[C@H](CC(C)C)NC(=O)[C@](C)(Cc1ccccc1)NC(=O)[C@H](CCCCN)NC(=O)[C@H](CO)NC(=O)[C@@H](NC(=O)[C@H](CC(=O)O)NC(=O)[C@H](CO)NC(=O)[C@@H](NC(=O)[C@H](Cc1ccccc1)NC(=O)[C@@H](NC(=O)CNC(=O)[C@H](CCC(N)=O)NC(=O)C(C)(C)NC(=O)[C@@H](N)Cc1c[nH]cn1)[C@@H](C)O)[C@@H](C)O)C(C)C)C(C)C)C(=O)N[C@@H](CC(C)C)C(=O)NC(C)(C)C(=O)N[C@@H](CCC(=O)O)C(=O)O
B3: Peptide 487 (peptide)
peptide: H[Aib]QGTFTSDVSK[αMeF]LDTK([AEEA-AEEA-γGlu-C18 diacid])RARDFVQWLL[Aib]TE-OH
modifications: N-terminus assumed
SMILES: CC(C)C[C@H](NC(=O)[C@H](Cc1c[nH]c2ccccc12)NC(=O)[C@H](CCC(N)=O)NC(=O)[C@@H](NC(=O)[C@H](Cc1ccccc1)NC(=O)[C@H](CC(=O)O)NC(=O)[C@H](CCCNC(=N)N)NC(=O)[C@H](C)NC(=O)[C@H](CCCNC(=N)N)NC(=O)[C@H](CCCCNC(=O)COCCOCCNC(=O)COCCOCCNC(=O)CC[C@H](NC(=O)CCCCCCCCCCCCCCCCC(=O)O)C(=O)O)NC(=O)[C@@H](NC(=O)[C@H](CC(=O)O)NC(=O)[C@H](CC(C)C)NC(=O)[C@](C)(Cc1ccccc1)NC(=O)[C@H](CCCCN)NC(=O)[C@H](CO)NC(=O)[C@@H](NC(=O)[C@H](CC(=O)O)NC(=O)[C@H](CO)NC(=O)[C@@H](NC(=O)[C@H](Cc1ccccc1)NC(=O)[C@@H](NC(=O)CNC(=O)[C@H](CCC(N)=O)NC(=O)C(C)(C)NC(=O)[C@@H](N)Cc1c[nH]cn1)[C@@H](C)O)[C@@H](C)O)C(C)C)[C@@H](C)O)C(C)C)C(=O)N[C@@H](CC(C)C)C(=O)NC(C)(C)C(=O)N[C@H](C(=O)N[C@@H](CCC(=O)O)C(=O)O)[C@@H](C)O
B4: Peptide 481 (peptide)
peptide: H[Aib]QGTFTSDVSK[αMeF]LDTK([AEEA-AEEA-γGlu-C20 diacid])RARDFVQWLLE[Aib]K-NH2
modifications: N-terminus assumed
SMILES: CC(C)C[C@H](NC(=O)[C@H](Cc1c[nH]c2ccccc12)NC(=O)[C@H](CCC(N)=O)NC(=O)[C@@H](NC(=O)[C@H](Cc1ccccc1)NC(=O)[C@H](CC(=O)O)NC(=O)[C@H](CCCNC(=N)N)NC(=O)[C@H](C)NC(=O)[C@H](CCCNC(=N)N)NC(=O)[C@H](CCCCNC(=O)COCCOCCNC(=O)COCCOCCNC(=O)CC[C@H](NC(=O)CCCCCCCCCCCCCCCCCCC(=O)O)C(=O)O)NC(=O)[C@@H](NC(=O)[C@H](CC(=O)O)NC(=O)[C@H](CC(C)C)NC(=O)[C@](C)(Cc1ccccc1)NC(=O)[C@H](CCCCN)NC(=O)[C@H](CO)NC(=O)[C@@H](NC(=O)[C@H](CC(=O)O)NC(=O)[C@H](CO)NC(=O)[C@@H](NC(=O)[C@H](Cc1ccccc1)NC(=O)[C@@H](NC(=O)CNC(=O)[C@H](CCC(N)=O)NC(=O)C(C)(C)NC(=O)[C@@H](N)Cc1c[nH]cn1)[C@@H](C)O)[C@@H](C)O)C(C)C)[C@@H](C)O)C(C)C)C(=O)N[C@@H](CC(C)C)C(=O)N[C@@H](CCC(=O)O)C(=O)NC(C)(C)C(=O)N[C@@H](CCCCN)C(N)=O
B5: Peptide 485 (peptide)
peptide: H[Aib]QGTFTSDVSK[αMeF]LDTK([AEEA-AEEA-γGlu-C20 diacid])RAQDFVQWLL[Aib]E-NH2
modifications: N-terminus assumed
SMILES: CC(C)C[C@H](NC(=O)[C@H](Cc1c[nH]c2ccccc12)NC(=O)[C@H](CCC(N)=O)NC(=O)[C@@H](NC(=O)[C@H](Cc1ccccc1)NC(=O)[C@H](CC(=O)O)NC(=O)[C@H](CCC(N)=O)NC(=O)[C@H](C)NC(=O)[C@H](CCCNC(=N)N)NC(=O)[C@H](CCCCNC(=O)COCCOCCNC(=O)COCCOCCNC(=O)CC[C@H](NC(=O)CCCCCCCCCCCCCCCCCCC(=O)O)C(=O)O)NC(=O)[C@@H](NC(=O)[C@H](CC(=O)O)NC(=O)[C@H](CC(C)C)NC(=O)[C@](C)(Cc1ccccc1)NC(=O)[C@H](CCCCN)NC(=O)[C@H](CO)NC(=O)[C@@H](NC(=O)[C@H](CC(=O)O)NC(=O)[C@H](CO)NC(=O)[C@@H](NC(=O)[C@H](Cc1ccccc1)NC(=O)[C@@H](NC(=O)CNC(=O)[C@H](CCC(N)=O)NC(=O)C(C)(C)NC(=O)[C@@H](N)Cc1c[nH]cn1)[C@@H](C)O)[C@@H](C)O)C(C)C)[C@@H](C)O)C(C)C)C(=O)N[C@@H](CC(C)C)C(=O)NC(C)(C)C(=O)N[C@@H](CCC(=O)O)C(N)=O
B6: Peptide 488 (peptide)
peptide: H[Aib]QGTFTSDVSK[αMeF]LDTK([AEEA-AEEA-γGlu-C20 diacid])RARDFVQWLL[Aib]TE-OH
modifications: N-terminus assumed
SMILES: CC(C)C[C@H](NC(=O)[C@H](Cc1c[nH]c2ccccc12)NC(=O)[C@H](CCC(N)=O)NC(=O)[C@@H](NC(=O)[C@H](Cc1ccccc1)NC(=O)[C@H](CC(=O)O)NC(=O)[C@H](CCCNC(=N)N)NC(=O)[C@H](C)NC(=O)[C@H](CCCNC(=N)N)NC(=O)[C@H](CCCCNC(=O)COCCOCCNC(=O)COCCOCCNC(=O)CC[C@H](NC(=O)CCCCCCCCCCCCCCCCCCC(=O)O)C(=O)O)NC(=O)[C@@H](NC(=O)[C@H](CC(=O)O)NC(=O)[C@H](CC(C)C)NC(=O)[C@](C)(Cc1ccccc1)NC(=O)[C@H](CCCCN)NC(=O)[C@H](CO)NC(=O)[C@@H](NC(=O)[C@H](CC(=O)O)NC(=O)[C@H](CO)NC(=O)[C@@H](NC(=O)[C@H](Cc1ccccc1)NC(=O)[C@@H](NC(=O)CNC(=O)[C@H](CCC(N)=O)NC(=O)C(C)(C)NC(=O)[C@@H](N)Cc1c[nH]cn1)[C@@H](C)O)[C@@H](C)O)C(C)C)[C@@H](C)O)C(C)C)C(=O)N[C@@H](CC(C)C)C(=O)NC(C)(C)C(=O)N[C@H](C(=O)N[C@@H](CCC(=O)O)C(=O)O)[C@@H](C)O
B7: Peptide 486 (peptide)
peptide: H[Aib]QGTFTSDVSK[αMeF]LDLK([AEEA-AEEA-γGlu-C20 diacid])RAQDFVRWLL[Aib]E-OH
modifications: N-terminus assumed
SMILES: CC(C)C[C@H](NC(=O)[C@H](CC(=O)O)NC(=O)[C@H](CC(C)C)NC(=O)[C@](C)(Cc1ccccc1)NC(=O)[C@H](CCCCN)NC(=O)[C@H](CO)NC(=O)[C@@H](NC(=O)[C@H](CC(=O)O)NC(=O)[C@H](CO)NC(=O)[C@@H](NC(=O)[C@H](Cc1ccccc1)NC(=O)[C@@H](NC(=O)CNC(=O)[C@H](CCC(N)=O)NC(=O)C(C)(C)NC(=O)[C@@H](N)Cc1c[nH]cn1)[C@@H](C)O)[C@@H](C)O)C(C)C)C(=O)N[C@@H](CCCCNC(=O)COCCOCCNC(=O)COCCOCCNC(=O)CC[C@H](NC(=O)CCCCCCCCCCCCCCCCCCC(=O)O)C(=O)O)C(=O)N[C@@H](CCCNC(=N)N)C(=O)N[C@@H](C)C(=O)N[C@@H](CCC(N)=O)C(=O)N[C@@H](CC(=O)O)C(=O)N[C@@H](Cc1ccccc1)C(=O)N[C@H](C(=O)N[C@@H](CCCNC(=N)N)C(=O)N[C@@H](Cc1c[nH]c2ccccc12)C(=O)N[C@@H](CC(C)C)C(=O)N[C@@H](CC(C)C)C(=O)NC(C)(C)C(=O)N[C@@H](CCC(=O)O)C(=O)O)C(C)C

Assays:
human glucagon receptor = human glucagon receptor (human, UniProt P47871); assay: cell-based or functional assay
human GLP-1 receptor = human GLP-1 receptor (human, UniProt P43220); assay: cell-based or functional assay

Binder	cAMP production EC50 (human glucagon receptor)	cAMP production EC50 (human GLP-1 receptor)
B1	0.169 nM	0.339 nM
B2	0.691 nM	0.19 nM
B3	0.164 nM	0.0655 nM
B4	0.35 nM	0.0522 nM
B5	0.0904 nM	0.219 nM
B6	0.301 nM	0.202 nM
H[Aib]QGTFTSDVSK[αMeF]LDTK([AEEA-AEEA-γGlu-C18 diacid])RAQDFVQWLL[Aib]E-OH [Peptide 483]	0.169 nM	0.178 nM
B7	0.166 nM	0.42 nM
